Experimental data reported in patent US6136598.

What was measured:
[1] = biological target: Mus dunni endogenous virus (MDEV) receptor on M. dunni cells (Mus dunni)
[2] = biological target: Mus dunni endogenous virus (MDEV) receptor on M. dunni cells (Mus dunni); remark: listed apart in the source
[3] = biological target: Mus dunni endogenous virus (MDEV) receptor on M. dunni cells (Mus dunni); remark: listed apart in the source
[4] = biological target: Mus dunni endogenous virus (MDEV) receptor on primary human dermal fibroblasts (human)

Substance: Balb/c 3T3 IdU-induced retrovirus (BIRV) envelope
- LAPSN titer, BIRV pseudotype on M. dunni cells infected with MDEV (8 × 10^4 on uninfected cells) [1]: 60000 FFU/ml

Substance: Mus dunni endogenous virus (MDEV) envelope protein
- log10 of the fold interference, LAPSN(MDEV) on dunni/LN cells infected with MDEV (log10 of the fold interference) [2]: 5.5
- Fold Interference, LAPSN(PD223) titer on dunni/N2 against dunni/N2 + MDEV (fold interference) [3]: > 20000
- LAPSN titer, MDEV pseudotype on M. dunni cells infected with MDEV (6 × 10^5 on uninfected cells) [1]: 3 FFU/ml
- inhibition of transduction, LAPSN(MDEV) on HDF cells infected with MDEV [4]: 100 fold

Substance: envelope protein of NZB xenotropic virus
- LAPSN titer, MDEV pseudotype on M. dunni cells infected with xenotropic virus (6 × 10^5 on uninfected cells) [1]: 400000 FFU/ml

Substance: envelope protein of amphotropic MLV strain 4070A
- Fold Interference, LAPSN(PA317) titer on dunni/N2 against dunni/N2 + MDEV (fold interference) [3]: 1

Substance: envelope protein of amphotropic virus (AM-MLV)
- LAPSN titer, MDEV pseudotype on M. dunni cells infected with amphotropic virus (6 × 10^5 on uninfected cells) [1]: 400000 FFU/ml

Substance: envelope protein of polytropic (MCF) virus strain 98D
- LAPSN titer, MDEV pseudotype on M. dunni cells infected with polytropic virus (6 × 10^5 on uninfected cells) [1]: 400000 FFU/ml
